The text below walks through data of CN117264055A (SHANGHAI HRAIN BIOTECHNOLOGY CO LTD, dated 2023).

Where a chain is given by its changes, count along the chain named.

In one experiment the target is T1, 生物素化的CD318蛋白 (human, UniProt Q9H5V8 30-667, biotin on the avi-tag).
T1 construct: Used 1:200 to stain CAR-T cells; also called 生物素-标记的CD318抗原; biotinylated recombinant human CD318-avi-his
T1 sequence: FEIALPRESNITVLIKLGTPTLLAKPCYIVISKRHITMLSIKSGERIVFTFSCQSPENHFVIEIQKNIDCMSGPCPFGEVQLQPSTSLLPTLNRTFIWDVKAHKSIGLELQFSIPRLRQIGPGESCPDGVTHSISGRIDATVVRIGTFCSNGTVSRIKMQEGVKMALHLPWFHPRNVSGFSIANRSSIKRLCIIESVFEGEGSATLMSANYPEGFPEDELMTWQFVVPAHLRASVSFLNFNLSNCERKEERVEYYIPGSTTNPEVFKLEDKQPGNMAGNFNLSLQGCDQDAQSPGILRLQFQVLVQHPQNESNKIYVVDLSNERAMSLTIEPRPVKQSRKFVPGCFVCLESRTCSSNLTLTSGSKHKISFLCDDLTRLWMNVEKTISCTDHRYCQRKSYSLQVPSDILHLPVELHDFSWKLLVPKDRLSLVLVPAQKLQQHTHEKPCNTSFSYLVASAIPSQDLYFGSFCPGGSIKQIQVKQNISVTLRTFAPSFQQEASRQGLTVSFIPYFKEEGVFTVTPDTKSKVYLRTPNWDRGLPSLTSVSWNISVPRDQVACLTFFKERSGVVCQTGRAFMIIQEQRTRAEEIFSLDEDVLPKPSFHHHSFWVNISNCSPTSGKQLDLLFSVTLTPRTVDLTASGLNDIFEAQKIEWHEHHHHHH
Put plainly: flow cytometry, CAR-T cells stained with biotinylated CD318 antigen and PE-streptavidin.

The target in a further experiment is T2, 重组人CD318-avi-his抗原蛋白 (human, UniProt Q9H5V8 30-667).
T2 construct: Coated on ELISA plates at 100 ng per well; also called 重组人CD318蛋白; CDCP1
T2 sequence: T1 sequence
As to the kind of experiment: ELISA, coated recombinant human CD318, periplasmic extract, anti-HA HRP. For orientation: In an ELISA, binding on a coated surface is turned into a signal by an enzyme label.

B1: 4A10-BBz (other)
chain: EVQVVESGGGLVQAGGSLRLSCVASGSNDSMTAMGWYRQAPGKQREMVAVSTSTGTAIYGDSMKGRFTIARDNAKNTVYLQMNSLNFEDTAVYYCRNFIRGRDYWGQGTQVTVSSTTTPAPRPPTPAPTIASQPLSLRPEACRPAAGGAVHTRGLDFACDIYIWAPLAGTCGVLLLSLVITLYCRFSVVKRGRKKLLYIFKQPFMRPVQTTQEEDGCSCRFPEEEEGGCELRVKFSRSADAPAYQQGQNQLYNELNLGRREEYDVLDKRRGRDPEMGGKPRRKNPQEGLYNELQKDKMAEAYSEIGMKGERRRGKGHDGLYQGLSTATKDTYDALHMQALPPR
notes: Chimeric antigen receptor: CD8 signal peptide, VHH, CD8a hinge, CD8a transmembrane, 4-1BB, CD3zeta; also called 4A10 CD318 CAR
With B1, in the experiment with 生物素化的CD318蛋白, the binding result was “binds”.

B2: 4A8-BBz (other)
chain: EVQLVESGGGLVQPGGSLRLSCAASGFTSDYYAIGWFRQAPGKEREGVSCINNSDGSTYYADSVKGRFTISRDNAKNTVYLQMNSLKPEDTAVYYCAADDDVVAGFSCASYRYLELWGQGTLVTVSSTTTPAPRPPTPAPTIASQPLSLRPEACRPAAGGAVHTRGLDFACDIYIWAPLAGTCGVLLLSLVITLYCRFSVVKRGRKKLLYIFKQPFMRPVQTTQEEDGCSCRFPEEEEGGCELRVKFSRSADAPAYQQGQNQLYNELNLGRREEYDVLDKRRGRDPEMGGKPRRKNPQEGLYNELQKDKMAEAYSEIGMKGERRRGKGHDGLYQGLSTATKDTYDALHMQALPPR
notes: Chimeric antigen receptor: CD8 signal peptide, VHH, CD8a hinge, CD8a transmembrane, 4-1BB, CD3zeta; also called 4A8 CD318 CAR
On to B2, for which, in the experiment with 生物素化的CD318蛋白, the binding result was “binds”.

B3: 4A8 (VHH)
VHH: EVQLVESGGGLVQPGGSLRLSCAASGFTSDYYAIGWFRQAPGKEREGVSCINNSDGSTYYADSVKGRFTISRDNAKNTVYLQMNSLKPEDTAVYYCAADDDVVAGFSCASYRYLELWGQGTLVTVSS
notes: Tested as a periplasmic extract from TG1 (pcomb3X phagemid) and detected with anti-HA HRP; also called CD318 VHH 4A8
Consider B3, for which, in the experiment with 重组人CD318-avi-his抗原蛋白, the binding result is recorded as “binds”.

B4: 4A4 (VHH)
VHH: QVQLVESGGGLVQAGGSLRLSCAASGSIFSGSAMGWYRQAPGKQRELVVVESSGGSTNYADSVKGRFTISRDNAKNTVYLQMNSLKPEDTAVYYCRGFYYGMGYWGKGTQVTVSS
notes: Tested as a periplasmic extract from TG1 (pcomb3X phagemid) and detected with anti-HA HRP; also called CD318 VHH 4A4
On to B4, for which the binding result with 重组人CD318-avi-his抗原蛋白 is “binds”.

B5: 4G2 (VHH)
VHH: QVQLVESGGGLVQAGGSLRLSCAAFGNKYDFNTMGWYRQGPGKQRELVATIAAGGRTNYADSAKGRFTISRDNAKNTVYLQMNSLKPEDTAVYYCSAERVKNHYADYALDDYWGQGIQVTVSS
notes: Tested as a periplasmic extract from TG1 (pcomb3X phagemid) and detected with anti-HA HRP; also called CD318 VHH 4G2
On to B5, for which, in the experiment with 重组人CD318-avi-his抗原蛋白, the binding result is listed as “binds”.

B6: 4A10 (VHH)
VHH: EVQVVESGGGLVQAGGSLRLSCVASGSNDSMTAMGWYRQAPGKQREMVAVSTSTGTAIYGDSMKGRFTIARDNAKNTVYLQMNSLNFEDTAVYYCRNFIRGRDYWGQGTQVTVSS
notes: Tested as a periplasmic extract from TG1 (pcomb3X phagemid) and detected with anti-HA HRP; also called CD318 VHH 4A10
In the case of B6, the binding result with 重组人CD318-avi-his抗原蛋白 was “binds”.

B7: 4B2 (VHH)
VHH: B6 VHH with N28S, T32N, M47T, T54V, M63V, A70S, N97I, I99S
notes: Tested as a periplasmic extract from TG1 (pcomb3X phagemid) and detected with anti-HA HRP; also called CD318 VHH 4B2
As for B7, in the experiment with 重组人CD318-avi-his抗原蛋白, the binding result is reported as “binds”.

B8: 4B7 (VHH)
VHH: EVQLVETGGGLVQPGGSLRLSCAASGFTLDYYAIGWFRQAPGKEREGVSCITSSDDNTYYADSVKGRFTISRDNAKNTVYLQMNSLKPEDTAVYYCATDALSIRRSSCQLGPTAYFGMDYWGKGTLVTVSS
notes: Tested as a periplasmic extract from TG1 (pcomb3X phagemid) and detected with anti-HA HRP; also called CD318 VHH 4B7
Regarding B8, the binding result in the experiment with 重组人CD318-avi-his抗原蛋白 is recorded as “binds”.
